Patent US20030108549A1 (GENETICS INSTITUTE, published 2003)

B1: mIL-7 (ligand, mouse, UniProt P10168 26-154, looked up)
chain: ECHIKDKEGKAYESVLMISIDELDKMTGTDSNCPNNEPNFFRKHVCDDTKEAAFLNRAARKLKQFLKMNISEEFNVHLLTVSQGTQTLVNCTSKEEKNVKEQKKNDACFLKRLLREIKTCWNKILKGSI
B2: mIL-2 (ligand, mouse, UniProt P04351 21-169, looked up)
chain: APTSSSTSSSTAEAQQQQQQQQQQQQHLEQLLMDLQELLSRMENYRNLKLPRMLTFKFYLPKQATELKDLQCLEDELGPLRHVLDLTQSKSFQLEDAENFISNIRVTVVKLKGSDNTFECQFDDESATVVDFLRRWIAFCQSIISTSPQ

Target: T1, human MU-1 Ig fusion protein (human, UniProt Q9HBE5 20-235)
T1 construct: also called MUFc; human Ig fusion protein; not shown: Ig portion
T1 sequence (Q9HBE5 20-235): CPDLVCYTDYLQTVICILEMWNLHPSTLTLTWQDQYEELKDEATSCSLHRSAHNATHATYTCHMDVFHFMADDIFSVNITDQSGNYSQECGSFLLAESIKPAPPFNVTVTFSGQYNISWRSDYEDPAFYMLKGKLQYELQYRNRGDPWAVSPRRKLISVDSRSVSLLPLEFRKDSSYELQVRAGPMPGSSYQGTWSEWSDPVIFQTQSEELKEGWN
Assay: Biacore; MU-1 Ig fusion immobilized on chip
Protocol: Both human and murine Ig fusion proteins were constructed and immobilized on Biacore chips in an effort to identify the ligand for MU-1. A variety of cell culture conditioned media as well as a panel of known cytokines were evaluated for binding to MU-1. Some cytokines were also tested in combination with other receptor chains in the family to consider the possibility that MU-1 may require a second receptor chain for ligand binding. The following cytokines were tested and found to be negative for MU-1 binding: mIL-2, hIL-2, hIL-i5, mIL-7, TSLP, TSLP+IL7, TSLP+IL7R, TSLP+IL7g, TSLP+IL-2, TSLP+1L2+IL2Rbeta, IL2Rbeta, IL2Rgamma, IL7R, IL2+2Rbeta, IL2+2Rgamma, IL1 5+IL2Rbeta, 1L15+2Rgamma, 1IL7+2Rgamma, IL2+IL7R, IL1 5+IL7R, IL7+IL7R. Known receptors have been immobilized as well and tested for MUFc binding with negative results. IL-IS will bind to IL2Rb but not IL2Rg or MUFc.

Binder | binding result
B1 | no binding
B2 | no binding
